We go through six molecules from patent US20240034786A1 (WUXI BIOLOGICS IRELAND, published 2024).

For orientation: EC50 means the concentration giving half of the maximal effect. High values mean a need for much substance, low ones an effect from little substance.

Positions count from the first letter of the chain named. Numbers in names are those of the source.

B1: W3195-1.53.1-p5-uIgG1LV320 (antibody, V domains shown)
VH: QVQLQESGPGLVKPSETLSLTCTVSGGSVISDNYYWTWVRQPPGKGLEFIGYIYYRGSTNYNPSLKNRVIISIDTSRNQFSLDLNSVTAADTAVYYCARDRRTGQSLPFDNWGQGTLVTVSS
VL: SYELTQPPSVSVSPGQTAQITCSGDKLGDKFASWYQQKSGQSPVVVIYQDNKRPSGFPERFSGSNSGNTATLTISGTQAMDEADYYCQAWDSSIVVFGGGTKLTVLG
notes: also called W3195-1.53.1-p5-uIgG1V320; W3195-p5-V320 antibody
B2: W3195-1.53.1-p6-uIgG1LV320 (antibody, V domains shown)
VH: B1 VH with Q105T
VL: B1 VL
notes: also called W3195-1.53.1-p6-uIgG1V320; W3195-p6-V320 antibody
B3: W3195-1.53.1-p4-uIgG1LV320 (antibody, V domains shown)
VH: B1 VH with Q105N, S106A
VL: B1 VL
notes: V320 = IgG1 Fc with L234A/L235A; also called W3195-1.53.1-p4-uIgG1V320; W3195-p4-V320 antibody
B4: W3195-1.53.1-p7-uIgG1LV320 (antibody, V domains shown)
VH: B1 VH with Q105S
VL: B1 VL
notes: also called W3195-1.53.1-p7-uIgG1V320; W3195-p7-V320 antibody
B5: W3195-1.53.1-uIgG1L (antibody)
heavy: not shown
light: SYELTQPPSVSVSPGQTANITCSGDKLGDKFASWYQQKSGQSPVVVIYQDNKRPSGFPERFSGSNSGNTATLTISGTQAMDEADYYCQAWDSSIVVFGGGTKLTVLGQPKAAPSVTLFPPSSEELQANKATLVCLISDFYPGAVTVAWKADSSPVKAGVETTTPSKQSNNKYAASSYLSLTPEQWKSHRSYSCQVTHEGSTVEKTVAPTECS
notes: Fully human IgG1 from an OmniRat hybridoma, converted to human IgG1; also called parental antibody; parental mAb
B6: W3195-1.53.1-p3-uIgG1L (antibody)
heavy: not shown
light: B5 light with T21A
notes: also called W3195-p3 antibody

The target in the first test is T1, Human P-cadherin on cells (human, UniProt P22223 108-829).
T1 construct: whole, on cells; Endogenous P-cadherin on tumour cell lines; also called hPro1
T1 sequence (P22223 108-829): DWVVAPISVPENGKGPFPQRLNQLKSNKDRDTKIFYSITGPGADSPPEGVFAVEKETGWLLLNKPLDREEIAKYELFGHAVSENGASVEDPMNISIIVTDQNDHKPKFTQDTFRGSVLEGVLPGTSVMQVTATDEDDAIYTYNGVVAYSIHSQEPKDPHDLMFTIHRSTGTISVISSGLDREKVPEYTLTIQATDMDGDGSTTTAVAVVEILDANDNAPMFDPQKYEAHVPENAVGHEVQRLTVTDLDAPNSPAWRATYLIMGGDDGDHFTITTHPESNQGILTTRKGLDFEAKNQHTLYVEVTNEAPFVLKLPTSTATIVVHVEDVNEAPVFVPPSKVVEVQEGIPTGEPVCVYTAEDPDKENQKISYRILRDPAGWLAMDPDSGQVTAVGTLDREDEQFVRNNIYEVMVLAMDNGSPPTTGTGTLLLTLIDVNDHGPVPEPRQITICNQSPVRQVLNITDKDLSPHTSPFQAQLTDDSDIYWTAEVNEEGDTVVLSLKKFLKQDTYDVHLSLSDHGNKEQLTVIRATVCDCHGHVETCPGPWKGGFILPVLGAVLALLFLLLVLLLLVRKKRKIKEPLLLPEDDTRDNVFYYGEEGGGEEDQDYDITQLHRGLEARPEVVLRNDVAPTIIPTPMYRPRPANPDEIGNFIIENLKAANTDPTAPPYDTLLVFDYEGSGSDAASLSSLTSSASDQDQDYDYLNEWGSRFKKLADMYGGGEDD
Put plainly: FACS on HCT-116 cells. The procedure:
(§1) Binding of the test antibodies to P-cadherin expressed on cells was determined by flow cytometry analysis. […] 1×10⁵ cells/well (100 μL) were added to each well of a 96-well U-plate (Corning, #3799) and centrifuged at 1500 rpm (Eppendorf, #5810R) for 5 minutes before removing the supernatant. Antibodies serially diluted in 1% BSA/1×PBS (Ca+/Mg+) were added at 100 μL/well to the pelleted cells and incubated at 4° C. for 1 hour. Anon-related hIgG1 antibody was used as an isotype control. Cells were washed two times with 180 μL/well of 1% BSA/1×PBS (Ca+/Mg+) by centrifugation at 1500 rpm for 5 minutes at 4° C. Pelleted cells were resuspended in 100 μL/well Alexa647 conjugated Goat anti-human IgG Fc (Jackson, #109-605-098) 1:500 diluted in 1% BSA/1×PBS (Ca+/Mg+) for 30 minutes at 4° C. in the dark. Cells were then washed two times as described above. After the final wash, cells were resuspended in 100 μL 1% BSA/1×PBS (Ca+/Mg+) and fluorescence values were measured with a FACS Canto II cytometer (BD Biosciences). The amount of cell surface bound anti-P-cadherin antibody was assessed by measuring the mean fluorescence (MFI). The FACS raw data were analyzed by FlowJo software, wells containing no antibody or secondary antibody only were used to establish background fluorescence. Binding EC50 values were obtained by the four-parameter non-linear regression analysis using GraphPad Prism6 software.
Binding of the antibodies to human P-cadherin expressed on cells was determined by flow cytometry analysis.
Consider B1, for which the EC50 is 0.17 nM and the “Max MFI” value came out at 4170.

For B2, it took 0.14 nM to reach a half-maximal effect (EC50) and the “Max MFI” value stood at 4180.

For the molecule B3, the response was half-maximal at 0.14 nM (EC50) and the “Max MFI” value is 4190.

Turning to B4, a half-maximal effect (EC50) was put at 0.14 nM and the “Max MFI” value turned out to be 4230.

For a further test, the target named is T1, Human P-cadherin on cells. Put plainly: cell-based or functional assay.
As for B1, the “internalization, Fab-ZAP on HCC-1954, IC50” value came to 0.058 nM and the “internalization, Fab-ZAP on HCC-1954, Max Inh %” value (“internalization … Max Inh %” for short) was 82%.

For the molecule B2, the “internalization, Fab-ZAP on HCC-1954, IC50” value came out at 0.063 nM and the “internalization … Max Inh %” value was determined as 79%.

With B3, the “internalization, Fab-ZAP on HCC-1954, IC50” value turned out to be 0.063 nM and the “internalization … Max Inh %” value was 80%.

In the case of B4, the “internalization, Fab-ZAP on HCC-1954, IC50” value came to 0.059 nM and the “internalization … Max Inh %” value is 79%.

In another test the target is T1, Human P-cadherin on cells. Put plainly: FACS on DU-145 cells. The procedure: as §1
For the molecule B5, the EC50 came to 0.05 nM and the “Max MFI” value was 2090.

For the molecule B6, the EC50 amounted to 0.05 nM and the “Max MFI” value amounted to 2140.

In the next test the target is T1, Human P-cadherin on cells. The test can be described thus: FACS on DU-145 cells. The source holds these as a separate data set. Here is the method: as §1
With B1, it took 0.12 nM to reach a half-maximal effect (EC50) and the “Max MFI” value was found to be 2240.

Consider B2, for which the midpoint of the response, the EC50, lay at 0.1 nM and the “Max MFI” value came out at 2290.

Take B3: the midpoint of the response, the EC50, lay at 0.12 nM and the “Max MFI” value worked out at 2160.

For B4, a half-maximal effect (EC50) was put at 0.09 nM and the “Max MFI” value amounted to 2280.

The next test addresses T1, Human P-cadherin on cells. Put plainly: cell-based or functional assay. The source holds these as a separate data set.
With B6, the “internalization, Fab-ZAP CTG assay on HCC-1954, IC50” value was determined as 0.02 nM.
